“And” between values parts separate entries of the source, which are not always exact repeats. Identical values can stand only once.
T1: N-hCD73-his (N-terminal domain of human CD73, residues 26-336, His tag) (human, UniProt P21589 26-336)
T1 sequence: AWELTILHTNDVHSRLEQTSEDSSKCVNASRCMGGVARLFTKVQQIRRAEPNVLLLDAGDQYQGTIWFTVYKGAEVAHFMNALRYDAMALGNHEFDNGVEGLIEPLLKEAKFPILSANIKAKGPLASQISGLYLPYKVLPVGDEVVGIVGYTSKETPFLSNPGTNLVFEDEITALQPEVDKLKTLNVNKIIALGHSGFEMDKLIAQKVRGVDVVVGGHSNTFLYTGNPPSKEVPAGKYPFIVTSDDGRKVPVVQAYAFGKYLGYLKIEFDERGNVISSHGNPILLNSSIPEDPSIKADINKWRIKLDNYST

T2: cynomolgus CD73 on transfected CHO cells (cynomolgus, UniProt P21589 27-549 (human entry))
T2 construct: also called CHO-cynoCD73; CHO-Cynomolgus CD73 transfectants
T2 chain: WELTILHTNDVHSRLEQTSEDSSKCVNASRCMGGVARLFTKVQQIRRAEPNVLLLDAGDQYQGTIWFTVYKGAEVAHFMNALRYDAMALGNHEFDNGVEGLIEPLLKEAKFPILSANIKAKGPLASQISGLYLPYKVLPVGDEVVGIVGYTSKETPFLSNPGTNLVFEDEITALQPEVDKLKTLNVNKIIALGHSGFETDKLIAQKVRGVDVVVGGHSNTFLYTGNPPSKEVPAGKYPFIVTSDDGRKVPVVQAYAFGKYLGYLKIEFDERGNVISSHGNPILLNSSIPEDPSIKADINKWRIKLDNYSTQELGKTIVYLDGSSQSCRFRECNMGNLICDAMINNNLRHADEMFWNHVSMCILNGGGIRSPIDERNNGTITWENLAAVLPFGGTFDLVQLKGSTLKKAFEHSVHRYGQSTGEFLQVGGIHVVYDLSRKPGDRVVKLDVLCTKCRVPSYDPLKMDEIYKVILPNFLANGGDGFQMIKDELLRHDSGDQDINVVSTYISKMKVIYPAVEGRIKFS


How the values were obtained:
[1] = molecular target: T1, N-hCD73-his (N-terminal domain of human …); assay: SPR, mAb captured on protein A
Protocol: (§1) For these experiments, protein A (Pierce) was immobilized to a density of 3000-4000 RU on flow cells 1-4 of a CM5 sensor chip (GE Healthcare) using standard ethyl(dimethylaminopropyl) carbodiimide (EDC)/N-hydroxysuccinimide […] chemistry, with ethanolamine blocking, in a running buffer of 0.01 M HEPES pH 7.4, 0.15 M NaCl, 3 mM EDTA, 0.005% v/v tween 20. […] The running buffer for the kinetic experiments was 10 mM sodium phosphate, 130 mM sodium chloride, 0.05% tween 20, pH 7.1. The surfaces were regenerated after each cycle using two 30 s pulses of 10 mM glycine pH 1.5 at a flow rate of 30 μl/min. Sensogram data was double-referenced and then fitted to a 1:1 Langmuir model using Biacore T100 evaluation software v2.0.4, to determine the association rate constant (ka), the dissociation rate constant (kd), and the equilibrium dissociation constant (KD).

[2] = molecular target: T2, cynomolgus CD73 on transfected CHO cells; assay: flow cytometry, CHO-cynoCD73 cells
Protocol: Titration binding curves were produced with CD73 antibodies on Calu6 (CD73 endogenous expressors; human pulmonary adenocarcinoma cell line), DMS114 (CD73 negative; human small cell lung cancer cell line), CHO-cynoCD73 (cynoCD73-transfected) and CHO-K1 (cynoCD73 negative), cells using Alexa Fluor® 647 Goat Anti-Human IgG (H+L) as a secondary antibody, Invitrogen Cat#A-21445, using the following method: 100000 cells were plated in 100 uL PBS+2% FBS per well and blocked for 20 min. Using a U-bottom 96-deep well plate, volumes of antibody and PBS+2% FBS were combined as dictated by Table 12 below.
An 8-point serial dilution was performed by diluting a sixth of the volume (90 uL) into […], PBS+2% FBS. The cell plate was spun down for 5 minutes at 1500 rpm. 100 uL of diluted antibody was added per well of the plate. 100 uL PBS+2% FBS were added to all other wells. […] The plates were spun down at 1500 rpm for 5 min and washed in 200 uL PBS+2% FBS per well. The plates were washed again, resuspended in 200 uL 2% FBS in PBS per well and the samples were run.

[3] = molecular target: T1, N-hCD73-his (N-terminal domain of human …); assay: SPR
[4] = molecular target: T1, N-hCD73-his (N-terminal domain of human …); assay: SPR, comparison of all IgG2 molecules
Protocol: as §1

Binder	Kd [1]	koff [1]	kon [1]	EC50 [2] [nM]	Kd [3] [nM]	fold lower affinity than 11F11 or CD73.4 [4] [fold]
CD73.10-IgG2-C219S-IgG1.1f (antibody, also called CD73.10-IgG2CS-IgG1.1f; CD73.10-IgG2S-IgG1.1f) heavy: QVQLVESGGGVVQPGRSLRLSCAASGFTFSNYGMHWVRQAPGKGLEWVAVIWYDESNKYYPDSVKGRFTISRDNSKNTLYLQMNSLRAEDTAVYYCARGGSSWYPDSFDIWGQGTMVTVSSASTKGPSVFPLAPCSRSTSESTAALGCLVKDYFPEPVTVSWNSGALTSGVHTFPAVLQSSGLYSLSSVVTVPSSNFGTQTYTCNVDHKPSNTKVDKTVERKSCVECPPCPAPPVAGPSVFLFPPKPKDTLMISRTPEVTCVVVDVSHEDPEVKFNWYVDGVEVHNAKTKPREEQYNSTYRVVSVLTVLHQDWLNGKEYKCKVSNKALPSSIEKTISKAKGQPREPQVYTLPPSREEMTKNQVSLTCLVKGFYPSDIAVEWESNGQPENNYKTTPPVLDSDGSFFLYSKLTVDKSRWQQGNVFSCSVMHEALHNHYTQKSLSLSPG light: not shown	5.7 nM and 6.8 nM	0.0016 s⁻¹ and 0.0014 s⁻¹	230000 M⁻¹ s⁻¹ and 240000 M⁻¹ s⁻¹	1.27	–	–
CD73.10-IgG2-C219S (antibody, also called CD73.10-IgG2CS; CD73.10-IgG2S) heavy: QVQLVESGGGVVQPGRSLRLSCAASGFTFSNYGMHWVRQAPGKGLEWVAVIWYDESNKYYPDSVKGRFTISRDNSKNTLYLQMNSLRAEDTAVYYCARGGSSWYPDSFDIWGQGTMVTVSSASTKGPSVFPLAPCSRSTSESTAALGCLVKDYFPEPVTVSWNSGALTSGVHTFPAVLQSSGLYSLSSVVTVPSSNFGTQTYTCNVDHKPSNTKVDKTVERKSCVECPPCPAPPVAGPSVFLFPPKPKDTLMISRTPEVTCVVVDVSHEDPEVQFNWYVDGVEVHNAKTKPREEQFNSTFRVVSVLTVVHQDWLNGKEYKCKVSNKGLPAPIEKTISKTKGQPREPQVYTLPPSREEMTKNQVSLTCLVKGFYPSDIAVEWESNGQPENNYKTTPPMLDSDGSFFLYSKLTVDKSRWQQGNVFSCSVMHEALHNHYTQKSLSLSPG light: not shown	6.2 nM and 8.3 nM	0.0014 s⁻¹ and 0.0018 s⁻¹	220000 M⁻¹ s⁻¹	1.24	~5	~10

Reference: patent publication US20190284293A1 (Bristol-Myers Squibb, published 2019)
